In patent US10752921B2, “Enzymes and methods for styrene synthesis” (Phytogene, Inc., priority 2012, dated 2020):
Changes are numbered by the printed parent chain. Names may count otherwise.

Columns and labels:
styrene production [1] = assay: Styrene production by wild type FDC1 in anaerobic versus aerobic condition; format: cell-based
Protocol: Production of styrene by maintaining the culture in an aerobic environment was conducted. […] Using the STRATA-X® column, we can trap the volatile styrene and can maintain aerobic conditions.

FDC1 [2] = target: T1, FDC1 (Saccharomyces cerevisiae, UniProt Q03034); assay: Temperature stability of FDC1; format: biochemical
T1 construct: N-terminal 6xHis leader of vector pDEST17 (own knowledge of the vector); made in house; host or cells: E. coli BL21 (DE3)
T1 sequence (Q03034 1-503): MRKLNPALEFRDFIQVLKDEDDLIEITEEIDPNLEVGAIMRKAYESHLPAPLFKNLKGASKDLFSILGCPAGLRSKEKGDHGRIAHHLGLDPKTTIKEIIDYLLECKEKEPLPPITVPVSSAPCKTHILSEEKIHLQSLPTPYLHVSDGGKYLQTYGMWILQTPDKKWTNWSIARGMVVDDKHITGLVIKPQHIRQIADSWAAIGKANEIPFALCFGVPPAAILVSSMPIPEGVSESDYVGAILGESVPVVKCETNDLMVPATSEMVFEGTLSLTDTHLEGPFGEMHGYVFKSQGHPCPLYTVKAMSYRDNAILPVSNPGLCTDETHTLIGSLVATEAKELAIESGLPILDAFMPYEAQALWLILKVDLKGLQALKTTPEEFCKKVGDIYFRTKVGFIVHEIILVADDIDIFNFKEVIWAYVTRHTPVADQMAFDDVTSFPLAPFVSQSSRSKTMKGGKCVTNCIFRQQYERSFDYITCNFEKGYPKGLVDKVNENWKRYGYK
Protocol: After incubation at various temperatures, an aliquot of protein (42 mg) was added to 25 mM potassium phosphate buffer pH 6.5, 5 mM DTT, and 1.4 mM tCA to a final volume of 1 mL. The reaction mixtures were incubated for 8 minutes at 30° C. The styrene was extracted with 250 μl butanol and quantified by HPLC using C18 column. The experimental negative control used the same conditions except the reaction mixture contained no substrate. The enzyme was stable at 50° C. (FIG. 7).
After the protein was incubated for various times, an aliquot (42 mg) was added to 25 mM potassium phosphate buffer pH 6.5, 5 mM DTT, and 1.4 mM tCA to a final volume of 1 mL. The reaction mixtures were then incubated for 8 minutes at 30° C. Styrene was extracted by adding 250 μL butanol to the reaction mixtures and quantified by HPLC. The experimental negative control used the same conditions except the reaction mixture contained no substrate. The protein was stable at 50° C. for 2 hr (FIG. 8).

styrene production [3] = assay: Expression of FDC-PAL2 fusion protein in E. coli, styrene in medium; format: cell-based; conditions: expressed in E. coli
Description: Artificial channels were included in the styrene production. To construct the fusion protein of PAL2 and FDC using Gateway technology, four primers were designed for PCR amplification. […] The FDC gene (˜1.5 kb) and the PAL2 gene (2.2 kb) were amplified using the above primers and cloned into the Gateway vector pDEST17. The constructs of the fusion protein of PAL2 and FDC were transformed to BL21(DE3). Fusion proteins of FDC mutant and PAL also can be obtained by the above process.
This fusion protein produced styrene at an amount that was about 6-fold higher than that of FDC expressing in E. coli (95 mg/Lin medium). This amount of styrene was also much higher than that of non-fused proteins of PAL2 and FDC (expressed in yeast, with 69 mg/L styrene detected).

FDC1 [4] = target: T1, FDC1; assay: Kinetic analysis of purified wild type FDC1 (tCA to styrene, HPLC); format: biochemical; conditions: for Km / Vmax: tCA as substrate (100-2000 μM), 0.5 mg purified protein, 5 min at 30° C.
Protocol: The standard reaction mixture for decarboxylation consisted of 25 mM potassium phosphate buffer (pH 6.5) containing 5 mM dithiothreitol, 1.4 mM trans-cinnamic acid and enzyme (0.50 mg) to a final volume of 1.0 mL. The reaction was started by the addition of the enzyme and was incubated at 30° C. for 5 min. The reaction was stopped by adding 24 μl of glacial acetic acid (17.4N) after which 2-propanol was added in equal volume to the reaction mixture in order to solubilize the product. The amount of styrene produced was measured by HPLC using a Dionex Ultimate3000 UHPLC equipped with an auto sampler, diode array (UV/Vis) detector, and reverse phase Acclaim 120 C18 column (2.1×150 […] Dionex USA). Samples (10 μl) were injected for analyses at a total constant flow rate of 0.6 ml/minute. The samples were resolved in 0.15% acetic acid (A) with an increasing concentration gradient of acetonitrile containing 0.15% acetic acid (B) for 0 to 4 min, 5%; 4 to 5 minutes, 5 to 40%; 5 to 7 min, 40 to 45%; 7 to 8 min, 45 to 85%; 8 to 12 min, 85 to 95%; 12 to 14 minutes, 95 to 5% at a flow rate of […]. The specific activity was expressed in U (nmol styrene)·mg^−1·min^−1.
To examine the catalytic efficiency of this protein, kinetic studies of FDC1 was conducted using tCA as the substrate. […] The reactions were performed in a total of 1.0 mL standard reaction mixture with 0.5 mg purified protein, and were allowed to proceed for 5 min at 30° C. The styrene was extracted with 250 μL butanol. The experimental negative control used the same conditions except the reaction mixture contained no substrate. Activities were quantified by standard assay method. Duplicate assays were performed and averaged. The Vmax and Km were determined by nonlinear regression analysis of the velocity-concentration data fit to the Michaelis-Menten equation.

FDC1 [5] = target: T1, FDC1; assay: pH stability of FDC1; format: biochemical; conditions: incubated for 30 minutes at pH 6.0 prior to the reaction
Protocol: The protein (crude extract, 586 μL) was added to 112 μL of 500 mM buffers at pH values of 5, 6, 7, 8, 9, 10, and 11, and incubated at 30° C. for 30 minutes. After treated in various pH buffers, an aliquot of protein (42 mg) was added to a final concentration of 100 mM potassium phosphate buffer pH 6.5, 5 mM DTT, 1.4 mM cinnamic acid and brought up to a final volume of 2 mL. The reaction mixture was then incubated for 8 minutes at 30° C. The styrene was extracted by the addition of 250 μL butanol. The experimental negative control used the same conditions except the reaction mixture contained no substrate. […] This protein is stable and active in a wide range of pH and can be used for industrial production of styrene.

styrene production [6] = assay: Production of styrene from trans-cinnamic acid in E. coli BL-21 (DE3); format: cell-based; conditions: fed 0.1% trans-cinnamic acid, 36 hours, STRATA X column
Protocol: The nucleotides encoding FDC wild type, FDC mutant (K190E), FDC (WT)-PAL fusion protein, and FDC (K190E)-PAL fusion protein were transformed in E. coli BL-21 (DE3). The cells were grown in LB at 30° C. for overnight. The cells were harvested and washed with M9 media. The cells were inoculated to 2.0 ml M9 media with the initial OD600 at 0.3 and were cultured at 30° C. until the OD600 of the culture reached to 0.6 to 0.8. The cells were then induced with 0.2 mM IPTG for 8.0 hours at 30° C. The cells transformed with FDC wild type and FDC (K190E) were fed with 0.1% trans-cinnamic acid. The cells transformed with FDC (WT)-PAL and FDC (K190E)-PAL fusion proteins were fed with either 0.1% trans-cinnamic acid or 0.1% L-phenylalanine. The fed cells were continuously cultured for 36 hours. STRATA X column was used to collect styrene. The product was eluted from the column by butanol and the amount was quantified by HPLC.

styrene production [7] = assay: Styrene production by FDC1 mutants from tCA (colorimetric screening, confirmed by HPLC); format: cell-based; conditions: E. coli cells, tCA 1 g/L, 30° C. for 4 hours
Protocol: Saturation mutagenesis allows the change of one amino acid to 19 other alternative amino acid residues. […] The codon NNK has 32-fold degeneracy and encodes all 20 amino acids without rare codons. The QuikChange PCR products were examined by agarose gel electrophoresis and then 15 μl of PCR products were digested with 1 μl Dpnl (New England Biolabs) at 37° C. for 4 hours to remove the template plasmid. Aliquots of (2 μl) digestive products were transformed into BL21-Gold (DE3) competent cells (STRATAgene, CA) and inoculated on Luria-Bertani (LB) agar plates containing kanamycin. The quality of the library by DNA sequencing was confirmed. The library covers 90% of mutagenesis (17 mutants out of 19). To cover 100% (19 out of 19 mutant), we screened 150 mutants for each site.
The transformants (Example II.2) were inoculated in 96-well plates (NUNC, Roskilde, Denmark) containing 100 μl LB broth per well and incubated at 37° C., overnight. The cultures were then mixed with equal amount of 50% glycerol and stored at −80° C. as the master plate. An aliquot of 10 μl culture was inoculated in 2 ml deep-well plates (USA scientific) with 1 ml TB broth per well and incubated at 37° C. until the OD600 reached 1.0. The cultures were then induced by 0.2 mM IPTG and incubated at 18° C. for 20 hours with shaking at 250 rpm.
Cells were harvested and suspended with 0.25 ml PBS buffer at pH 7.0 and the substrate (tCA) was added at a final concentration of 1 g/L. The culture was incubated at 30° C. for 4 hours and the volatile product styrene was collected by using 96 well STRATA-X® reversed phase plate containing 10 mg polymer based resin (Phenomenex) on top of the culture plate (FIG. 19). To avoid styrene vapor diffusion, 96-square well silicone sealing mats with pre-slit were used between 96-well culture plate and 96 well STRATA-X® reversed phase plate. The product was collected by 200 μl propanol for each well and the amount of product was measured by colorimetric method.
Various chemicals were tested as an indicator for styrene detection, including NBP (4-nitrobenzyl-pyridine) as a preferred indicator. Styrene was mixed with cytochrome P450 BM-3 in 50 mM phosphate buffer pH 8.0. The styrene oxidation reaction was started by adding 0.2 mM NADPH, and the reaction mixture was incubated at room temperature for 5 minutes with shaking. The NBP solution was added to the mixture and incubated at room temperature for further 5 minutes with shaking which gives white precipitate. The tube or plate containing reaction mixtures were heated at 70° C. for 30 minutes and chilled on ice for 5 minutes. After adding Dimethylformamide (150 μl) and 25 μl of 1M K2CO3, the reaction mixture gave blue color that can be measured spectrophotometrically at 600 nm immediately. The […] of NBP reacts with the oxirane ring of styrene oxide to yield a blue chromophore a blue color that can be monitored spectrophotometrically at 600 nm.
The mutants showing higher activity were confirmed by HPLC using an ACQUITY UPLC BEH C18 column (1.7-μm, 2.1×50-mm, Waters, USA). The samples were resolved in 30% acetonitrile (A) with an increasing concentration gradient of acetonitrile (B) for 1 min, 95%; then to 1 min, 30%; at a flow rate of 1 ml/min. UV absorption was monitored at 254-, 280-, and 310-nm. The changed amino acid residues in the mutants showing the higher activity were confirmed by DNA sequence.

B1: FDC1: Saccharomyces cerevisiae cinnamic acid decarboxylase, also termed ferulic acid decarboxylase; 503 amino acids, SEQ ID NO:8 (protein, listed as Saccharomyces cerevisiae)
chain: T1 sequence (Q03034 1-503)
With B1 the “amount of styrene in anaerobic condition compared to aerobic condition” value (styrene production [1]) was “half the amount of styrene”, the activity retained (FDC1 [2]; after incubation at 50° C. for about 2 hours) was 100% and the “stability at 50° C. over time” value (FDC1 [2]; crude extract incubated at 50° C. for 2 hr) was “stable”. The temperature stability (FDC1 [2]; incubated 30 minutes at 50° C. prior to reaction) was “stable”, the “relative activity after incubation at 50° C.” value (FDC1 [2]; incubated at 50° C. for 30 minutes prior to the reaction) was 100% and the styrene in medium (styrene production [3]) was 95 mg/L. The catalytic efficiency (FDC1 [4]; tCA as substrate) was 8.4 M^−1 S^−1, the Km (FDC1 [4]; listed as wild type FDC) was roughly 688 µM and the Vmax (FDC1 [4]; listed as wild type FDC) was “about 6.17 nmol·mg^−1·min^−1”. For the same molecule, the Km (FDC1 [4]; listed as wild type FDC1) was 688 µM, the Vmax (FDC1 [4]; listed as wild type FDC1) was 6.17 nmol/mg/min and the “relative activity after incubation at pH 6.0” value (FDC1 [5]) was 100%.

B2: K190E (protein)
chain: T1 sequence (Q03034 1-503) with K190E
In the case of B2, the styrene produced (styrene production [6]) is reported as 758 mg/L, the “amount of styrene compared to that of wild type (in words)” value (styrene production [7]) is reported as “significantly higher amount of styrene” and the “styrene produced compared to wild type” value (styrene production [7]) is reported as 3 times.
